We go through 1 protein from patent publication US6818657B1, “Bioprecursors of a retinoic derivative and pharmaceutical and/or cosmetic compositions” (Pierre Fabre Dermo-Cosmetique, priority 1999, dated 2004).

Substrate in the series: CC1=C(/C=C/C(C)=C/C=C/C(C)=C/C(=O)Oc2ccc(O[C@@H]3OC(CO)[C@@H](O)C(O)C3O)cc2)C(C)(C)CCC1
Nature of the series: Michaelis constants (Km) and Vm of recombinant β-glucocerebrosidase for pseudosubstrates. As to conditions: other: phthalate buffer pH 5.6 (0.025 M), taurocholate 5 mM, purified β-glucocerebrosidase, 30 minutes incubation, HPLC assay. Format: biochemical. How it is done:
After confirming that β-glucocerebrosidase is expressed in the keratinocytes, we produced a recombinant enzyme in the baculovirus system. A histidine tail was added to the COOH end of the protein to allow it to be purified by affinity column chromatography.
Thus, we were able to determine the Michaelis constants (Km) and the Vm values of the recombinant β-glucocerebrosidase in particular for the retinoic acid-arbutin glucoconjugate. The kinetics measurements are carried out in a phthalate buffer at pH 5.6 (0.025 M) containing taurocholate (5 mM), purified β-glucocerebrosidase and the test conjugate at various concentrations. The incubation lasts 30 minutes and the amount of hydroquinone-retinoic acid conjugate released is assayed by HPLC. The table below gives the results obtained. […] As regards their rates of hydrolysis, these are lower and thus allow effects to be obtained over time.

B1: recombinant β-glucocerebrosidase (Homo sapiens) (protein)
chain: ARPCIPKSFGYSSVVCVCNATYCDSFDPPTFPALGTFSRYESTRSGRRMELSMGPIQANHTGTGLLLTLQPEQKFQKVKGFGGAMTDAAALNILALSPPAQNLLLKSYFSEEGIGYNIIRVPMASCDFSIRTYTYADTPDDFQLHNFSLPEEDTKLKIPLIHRALQLAQRPVSLLASPWTSPTWLKTNGAVNGKGSLKGQPGDIYHQTWARYFVKFLDAYAEHKLQFWAVTAENEPSAGLLSGYPFQCLGFTPEHQRDFIARDLGPTLANSTHHNVRLLMLDDQRLLLPHWAKVVLTDPEAAKYVHGIAVHWYLDFLAPAKATLGETHRLFPNTMLFASEACVGSKFWEQSVRLGSWDRGMQYSHSIITNLLYHVVGWTDWNLALNPEGGPNWVRNFVDSPIIVDITKDTFYKQPMFYHLGHFSKFIPEGSQRVGLVASQKNDLDAVALMHPDGSAVVVVLNRSSKDVPLTIKDPAVGFLETISPGYSIHTYLWRRQ
notes: histidine tail (His tag) (C); made in house
As to B1, the Km – broadly, the substrate concentration at which the rate is half of its maximum – worked out at 5 ± 1.2 µM and the Vmax (in general, the rate approached at saturating substrate) came out at 235 ± 19 nmol/h/mg.
